Results taken from USRE48558 (Genentech, dated 2021).
Positions count from the first letter of the chain named. In names and notes the source's numbering stands. Where no end group is shown, it is not given here.

Key:
[1] = target: T1, extracellular domain of human CD79b fused to Fc (human, UniProt P40259 29-159); experiment: SPR (Biacore), Fab against MA79b Fab, immobilized huCD79becd-Fc
T1 construct: also called huCD79becd-Fc; huCD79b-Fc; not shown: Fc part of the fusion
T1 sequence: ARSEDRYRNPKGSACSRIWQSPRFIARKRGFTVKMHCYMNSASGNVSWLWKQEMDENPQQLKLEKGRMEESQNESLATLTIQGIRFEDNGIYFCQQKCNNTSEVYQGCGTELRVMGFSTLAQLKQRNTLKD

[2] = target: T2, 16 amino acid peptide containing the epitope for MA79b (ARSEDRYRNPKGSACK) (human, also: biotinylated, site not given here); experiment: SPR (Biacore), biotinylated peptide captured on streptavidin chip
T2 construct: Synthetic
T2 peptide: ARSEDRYRNPKGSACK

[3] = target: T3, human CD79b on the cell surface (human, UniProt P40259 29-229); experiment: Scatchard analysis, 125I-labelled IgG competed with unlabelled IgG on BJAB cells stably expressing cynomolgus CD79b and endogenous human CD79b
T3 construct: In the Scatchard analysis the BJAB line also stably expressed cynomolgus CD79b; also called PRO36249; endogenous human CD79b on DoHH-2, BJAB and BJAB-luciferase cells
T3 sequence: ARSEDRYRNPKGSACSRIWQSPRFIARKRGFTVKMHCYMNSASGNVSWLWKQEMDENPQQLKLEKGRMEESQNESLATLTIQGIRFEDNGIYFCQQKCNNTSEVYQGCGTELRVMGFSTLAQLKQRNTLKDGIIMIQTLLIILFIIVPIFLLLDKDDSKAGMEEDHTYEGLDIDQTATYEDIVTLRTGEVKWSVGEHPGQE

[4] = target: T4, extracellular domain of human CD79b (human, UniProt P40259 29-159); experiment: FACS analysis, IgG (data not shown); reference not given
T4 construct: also called huCD79becd; huCD79b-ecd
T4 sequence: T1 sequence

[5] = target: T4, extracellular domain of human CD79b; experiment: SPR (Biacore), IgG, immobilized huCD79becd; reference not given
[6] = target: T1, extracellular domain of human CD79b …; experiment: SPR (Biacore), IgG compared with Fab, immobilized huCD79becd-Fc

B1: huMA79b L2-2 (Fab) (Fab, name in Kabat numbering, V domains shown)
VH: EVQLVESGGGLVQPGGSLRLSCAASGYTFSSYWIEWVRQAPGKGLEWVGEILPGGGDTNYNEIFKGRFTISADTSKNTAYLQMNSLRAEDTAVYYCTRRVPVYFDYWGQGTLVTVSS
VL: DIQMTQSPSSLSASVGDRVTITCKASQSVDYDGDSFLNWYQQKPGKAPKLLIYAARKLGRGVPSRFSGSGSGTDFTLTISSLQPEDFATYYCQQSNEDPLTFGQGTKVEIKR
notes: Fab on phage in the selection; purified Fab in FACS and Biacore; rest as huMA79b graft; also called L2-2 mutation; MA79b-grafted humanized antibody variant L2-2
- fold improvement in monomeric binding compared to MA79b [1]: 5 fold

B2: MA79b-grafted humanized antibody variant L2/H3 (antibody, name in Kabat numbering, V domains shown)
VH: B1 VH with V102I, Y103R, F104L
VL: B1 VL
notes: 125I-labelled in the Scatchard analysis; also called huMA79b L2/H3
- binding result [2]: binds
- Kd [3]: 0.52 nM

B3: MA79b-grafted humanized antibody (IgG) (antibody, V domains shown)
VH: B1 VH
VL: B1 VL with R56S, K57N, G59E, R60S
notes: Expressed as IgG; also called huMA79b graft; huMA79b-graft
- fold reduction in binding affinity [4]: > 100 fold
- fold loss of affinity [5]: > 50 fold

B4: murine anti-CD79b monoclonal antibody MA79b (antibody, V domains shown)
VL: DIVLTQSPASLAVSLGQRATISCKASQSVDYDGDSFLNWYQQKPGQPPKLFIYAASNLESGIPARFSGSGSGTDFTLNIHPVEEEDAATYYCQQSNEDPLTFGAGTELELKR
VH: EVQLQQSGAELMKPGASVKISCKATGYTFSSYWIEWVKQRPGHGLEWIGEILPGGGDTNYNEIFKGKATFTADTSSNTAYMQLSSLTSEDSAVYYCTRRVPVYFDYWGQGTSVTVSS
notes: Murine IgG; 125I-labelled in the Scatchard analysis; also called murine CD79b antibody; original mouse anti-CD79b monoclonal antibody
- fold avidity component (IgG against Fab of MA79b) [6]: 100 fold
- Kd [3]: 0.63 nM
